Patent US20230365641
“And” between values parts separate entries of the source, which are not always exact repeats. Equal entries are not always repeated.

Assays:
[1] = system: TC24
[2] = system: TC3
[3] = system: TC46
[4] = system: TC47
[5] = system: TC53
[6] = system: TC57
[7] = system: TC68
[8] = system: TC69
[9] = system: TC70
[10] = system: TC71
[11] = system: TC73
[12] = system: TC74
[13] = system: TC75
[14] = system: TC21
[15] = system: TC26
[16] = system: TC27

MMP-10 protease, sequence (chain, as listed by the source): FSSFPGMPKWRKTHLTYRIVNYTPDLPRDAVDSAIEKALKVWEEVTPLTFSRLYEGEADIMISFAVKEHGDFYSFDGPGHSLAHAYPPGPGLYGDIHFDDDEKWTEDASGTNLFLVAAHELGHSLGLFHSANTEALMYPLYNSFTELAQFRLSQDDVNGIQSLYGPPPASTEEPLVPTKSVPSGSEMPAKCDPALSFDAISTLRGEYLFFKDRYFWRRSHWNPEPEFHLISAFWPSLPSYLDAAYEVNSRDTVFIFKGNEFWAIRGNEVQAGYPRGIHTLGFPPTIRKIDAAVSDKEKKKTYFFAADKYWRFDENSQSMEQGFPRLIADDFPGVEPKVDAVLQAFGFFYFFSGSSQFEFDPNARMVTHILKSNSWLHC
recombinant human MMP-9, sequence (chain, as listed by the source): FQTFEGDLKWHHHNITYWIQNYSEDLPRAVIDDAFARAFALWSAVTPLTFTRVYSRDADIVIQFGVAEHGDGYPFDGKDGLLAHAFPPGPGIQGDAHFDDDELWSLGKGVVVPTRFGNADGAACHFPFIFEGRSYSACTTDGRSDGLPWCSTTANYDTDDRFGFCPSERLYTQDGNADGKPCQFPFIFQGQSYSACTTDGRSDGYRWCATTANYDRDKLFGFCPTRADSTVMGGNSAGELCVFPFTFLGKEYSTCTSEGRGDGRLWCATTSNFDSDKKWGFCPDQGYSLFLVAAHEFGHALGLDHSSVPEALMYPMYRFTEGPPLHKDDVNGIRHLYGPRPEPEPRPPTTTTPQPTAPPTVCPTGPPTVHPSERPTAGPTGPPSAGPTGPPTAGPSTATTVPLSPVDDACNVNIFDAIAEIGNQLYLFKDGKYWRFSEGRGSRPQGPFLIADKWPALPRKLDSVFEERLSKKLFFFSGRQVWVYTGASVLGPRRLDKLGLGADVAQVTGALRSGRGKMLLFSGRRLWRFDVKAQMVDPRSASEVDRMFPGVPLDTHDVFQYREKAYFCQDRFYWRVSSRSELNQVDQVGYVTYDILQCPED
TC24, sequence (chain, as listed by the source, chain 1 of 3, other chains not shown): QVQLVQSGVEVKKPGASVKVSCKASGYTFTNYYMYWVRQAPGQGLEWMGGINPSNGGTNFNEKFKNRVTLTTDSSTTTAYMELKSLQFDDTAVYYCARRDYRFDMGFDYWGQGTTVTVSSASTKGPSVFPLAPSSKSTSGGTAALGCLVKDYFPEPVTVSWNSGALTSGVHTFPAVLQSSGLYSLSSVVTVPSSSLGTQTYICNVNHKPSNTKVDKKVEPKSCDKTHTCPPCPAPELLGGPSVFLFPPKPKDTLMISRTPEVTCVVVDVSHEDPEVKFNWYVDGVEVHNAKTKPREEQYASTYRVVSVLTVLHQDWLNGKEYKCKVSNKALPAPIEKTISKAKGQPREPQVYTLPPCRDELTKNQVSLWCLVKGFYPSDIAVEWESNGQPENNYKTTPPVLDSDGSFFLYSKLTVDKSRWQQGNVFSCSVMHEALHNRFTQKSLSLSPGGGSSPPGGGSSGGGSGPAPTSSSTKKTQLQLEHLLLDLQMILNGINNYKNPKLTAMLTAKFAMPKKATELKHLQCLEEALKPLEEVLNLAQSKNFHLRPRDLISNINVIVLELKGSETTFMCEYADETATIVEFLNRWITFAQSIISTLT
TC24, sequence (chain, as listed by the source, chain 2 of 3, other chains not shown): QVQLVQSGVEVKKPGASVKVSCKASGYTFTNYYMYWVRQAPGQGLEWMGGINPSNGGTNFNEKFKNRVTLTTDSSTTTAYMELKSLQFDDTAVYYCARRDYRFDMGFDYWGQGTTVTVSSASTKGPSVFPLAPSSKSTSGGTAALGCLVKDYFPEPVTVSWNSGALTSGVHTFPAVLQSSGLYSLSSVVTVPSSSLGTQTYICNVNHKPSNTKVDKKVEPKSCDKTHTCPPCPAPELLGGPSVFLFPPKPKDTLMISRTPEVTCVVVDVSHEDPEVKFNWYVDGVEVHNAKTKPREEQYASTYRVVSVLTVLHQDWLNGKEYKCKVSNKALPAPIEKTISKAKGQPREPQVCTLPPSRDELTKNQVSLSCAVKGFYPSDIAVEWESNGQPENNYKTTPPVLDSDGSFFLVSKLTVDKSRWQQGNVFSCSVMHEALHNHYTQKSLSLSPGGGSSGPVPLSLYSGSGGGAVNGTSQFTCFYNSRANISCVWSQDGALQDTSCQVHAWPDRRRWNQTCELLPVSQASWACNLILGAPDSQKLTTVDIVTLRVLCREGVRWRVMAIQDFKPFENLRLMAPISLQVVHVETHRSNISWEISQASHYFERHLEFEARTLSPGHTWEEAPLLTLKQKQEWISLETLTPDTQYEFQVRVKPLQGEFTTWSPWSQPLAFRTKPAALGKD
TC3, sequence (chain, as listed by the source, chain 1 of 3, other chains not shown): as the sequence (chain, as listed by the source, chain 1 of 3, other chains not shown) above
TC3, sequence (chain, as listed by the source, chain 2 of 3, other chains not shown): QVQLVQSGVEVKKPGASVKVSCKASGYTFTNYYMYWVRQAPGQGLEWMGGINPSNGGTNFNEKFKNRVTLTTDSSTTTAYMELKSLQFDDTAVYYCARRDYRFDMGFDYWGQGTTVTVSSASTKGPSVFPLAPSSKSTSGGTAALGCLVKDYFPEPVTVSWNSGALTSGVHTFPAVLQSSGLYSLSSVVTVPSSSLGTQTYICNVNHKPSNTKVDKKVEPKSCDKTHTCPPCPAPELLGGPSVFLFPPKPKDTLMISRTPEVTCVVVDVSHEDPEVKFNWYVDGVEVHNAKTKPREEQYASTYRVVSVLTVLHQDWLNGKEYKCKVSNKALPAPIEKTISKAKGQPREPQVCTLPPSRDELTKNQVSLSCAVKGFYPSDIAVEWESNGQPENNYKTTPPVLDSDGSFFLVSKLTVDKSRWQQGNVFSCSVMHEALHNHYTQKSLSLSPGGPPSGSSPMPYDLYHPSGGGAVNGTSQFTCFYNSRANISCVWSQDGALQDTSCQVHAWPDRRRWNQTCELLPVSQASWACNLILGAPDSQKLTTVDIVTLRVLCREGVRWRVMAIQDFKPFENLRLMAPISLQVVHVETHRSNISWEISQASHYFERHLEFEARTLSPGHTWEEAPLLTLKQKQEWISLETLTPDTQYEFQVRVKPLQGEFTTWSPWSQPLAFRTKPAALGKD
TC47, sequence (chain, as listed by the source, chain 1 of 3, other chains not shown): as the sequence (chain, as listed by the source, chain 1 of 3, other chains not shown) above
TC47, sequence (chain, as listed by the source, chain 2 of 3, other chains not shown): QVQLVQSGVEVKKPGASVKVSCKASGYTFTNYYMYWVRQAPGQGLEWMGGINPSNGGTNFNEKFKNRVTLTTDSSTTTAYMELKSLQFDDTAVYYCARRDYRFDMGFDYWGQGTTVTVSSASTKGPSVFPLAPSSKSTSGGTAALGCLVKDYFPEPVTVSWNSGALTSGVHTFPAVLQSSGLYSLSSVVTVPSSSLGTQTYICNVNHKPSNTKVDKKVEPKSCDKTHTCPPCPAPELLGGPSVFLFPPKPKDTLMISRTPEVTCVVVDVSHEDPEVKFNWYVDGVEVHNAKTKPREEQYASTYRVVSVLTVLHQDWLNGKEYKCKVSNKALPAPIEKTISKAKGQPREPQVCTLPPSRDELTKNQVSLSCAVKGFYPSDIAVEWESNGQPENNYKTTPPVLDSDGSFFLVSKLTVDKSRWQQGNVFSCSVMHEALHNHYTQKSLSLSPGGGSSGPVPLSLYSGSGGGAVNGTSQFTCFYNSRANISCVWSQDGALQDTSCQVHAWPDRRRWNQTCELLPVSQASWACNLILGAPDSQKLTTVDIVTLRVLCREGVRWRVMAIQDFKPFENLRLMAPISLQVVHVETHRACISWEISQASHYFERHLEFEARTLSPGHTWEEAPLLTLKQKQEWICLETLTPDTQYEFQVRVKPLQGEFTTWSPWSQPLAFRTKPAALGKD
TC46, sequence (chain, as listed by the source, chain 1 of 3, other chains not shown): as the sequence (chain, as listed by the source, chain 1 of 3, other chains not shown) above
TC46, sequence (chain, as listed by the source, chain 2 of 3, other chains not shown): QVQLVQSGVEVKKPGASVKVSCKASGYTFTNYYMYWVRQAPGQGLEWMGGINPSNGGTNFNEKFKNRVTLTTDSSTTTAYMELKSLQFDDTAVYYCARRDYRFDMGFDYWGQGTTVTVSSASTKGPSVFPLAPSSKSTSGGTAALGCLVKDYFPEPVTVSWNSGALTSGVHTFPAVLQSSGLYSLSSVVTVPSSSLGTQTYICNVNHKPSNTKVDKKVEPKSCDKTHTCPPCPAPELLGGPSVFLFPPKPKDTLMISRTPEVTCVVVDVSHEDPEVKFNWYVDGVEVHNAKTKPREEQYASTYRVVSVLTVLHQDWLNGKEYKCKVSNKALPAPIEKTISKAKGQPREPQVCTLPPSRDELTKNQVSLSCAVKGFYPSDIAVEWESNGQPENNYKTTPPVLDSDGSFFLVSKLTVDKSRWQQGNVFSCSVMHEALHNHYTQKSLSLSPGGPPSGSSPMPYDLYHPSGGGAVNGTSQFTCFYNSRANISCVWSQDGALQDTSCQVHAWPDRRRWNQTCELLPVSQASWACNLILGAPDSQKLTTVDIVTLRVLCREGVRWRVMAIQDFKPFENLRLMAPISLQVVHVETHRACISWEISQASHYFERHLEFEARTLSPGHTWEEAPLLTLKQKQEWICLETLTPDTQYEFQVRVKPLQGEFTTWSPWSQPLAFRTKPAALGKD

Substance | Est. kcat/KM [1] [M⁻¹ s⁻¹] | Est. kcat/KM [2] [M⁻¹ s⁻¹] | Est. kcat/KM [3] [M⁻¹ s⁻¹] | Est. kcat/KM [4] [M⁻¹ s⁻¹] | Est. kcat/KM [5] | Est. kcat/KM [6] | Est. kcat/KM [7] | Est. kcat/KM [8] | Est. kcat/KM [9] | Est. kcat/KM [10] | Est. kcat/KM [11] | Est. kcat/KM [12] | Est. kcat/KM [13] | cleavage efficiency [14] | cleavage efficiency [1] | cleavage efficiency [15] | cleavage efficiency [16]
recombinant human MMP-9 | 42000 | 3500 | 3500 | 38000 | 19000 M⁻¹ s⁻¹ and 18000 M⁻¹ s⁻¹ | 13000 M⁻¹ s⁻¹ and 14000 M⁻¹ s⁻¹ | 16000 M⁻¹ s⁻¹ and 15000 M⁻¹ s⁻¹ | 35000 M⁻¹ s⁻¹ and 36000 M⁻¹ s⁻¹ | 390 M⁻¹ s⁻¹ and 370 M⁻¹ s⁻¹ | 28000 M⁻¹ s⁻¹ and 30000 M⁻¹ s⁻¹ | 30000 M⁻¹ s⁻¹ and 29000 M⁻¹ s⁻¹ | 850 M⁻¹ s⁻¹ and 860 M⁻¹ s⁻¹ | 25000 M⁻¹ s⁻¹ and 26000 M⁻¹ s⁻¹ | – | – | – | –
MMP-10 protease | – | – | – | – | – | – | – | – | – | – | – | – | – | cleavage efficiency of greater than 80% | cleavage efficiency of greater than 80% | cleavage efficiency of greater than 80% | cleavage efficiency of greater than 80%
